Measured values: paper PMC13544220, “Glycemic and bodyweight effects of GIPR coding variation reflect differences in surface expression and intrinsic functional impairment” (Science Advances, 2026)

Assays:
Type in all cases: cell-based, human
[1] = test system: wild-type and variant SNAP-GIPR; experiment: Surface SNAP-GIPR expression (SNAP-tag labelling) in AD293 cells; details: for AD293 Surface: Fig S3E, mean; for Surface SNAP-GIPR expression: sheet Fig 1C;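 on all read-outs here: scaled to the experimental average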
Description: (§1) Twenty-four hours before the experiment, AD293 or INS-1 cells were reverse transfected with GIPR variant or wild-type plasmids using Lipofectamine 2000 in 96-well, clear-bottom, black microplates precoated with poly-D-lysine. All variants were tested in parallel on each occasion to control for transfection efficiency differences between experiments. Cells were then labeled using the cell-impermeant probe SNAP-Surface Alexa Fluor 647 (500 nM, New England Biolabs, USA) for 10 min at room temperature to label only surface GIPR. […] Several fields of view (FOVs) were acquired within each well using a 20X, 0.75–numerical aperture (NA) air objective. Surface GIPR fluorescence was quantified after flat-field correction using BaSiC ([72]) and segmenting using Phantast ([73]), which generates a mask based on the phase contrast images to demarcate cell versus noncell. Wide-field imaging of the surface-specific labeling achieved by SNAP-Surface probes means that surface expression can be established from whole-cell fluorescence, after subtracting nonspecific fluorescence from a separate well containing nontransfected cells processed in parallel from the same experiment. Data were normalized by dividing by the average specific signal across each experiment, or by the wild-type value, as indicated in the figure legends.

[2] = test system: wild-type and variant SNAP-GIPR; experiment: Surface SNAP-GIPR expression (SNAP-tag labelling) in INS-1 cells; details: Fig 4G; Mean
Description: as §1

[3] = test system: wild-type and variant SNAP-GIPR; experiment: Single-concentration GIP cAMP response by HTRF in AD293 cells; details: Fig S3F, HTRF, mean;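 further: ratio to experiment-wide average response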
Description: (§2) All variants were tested in parallel on each occasion to control for transfection efficiency differences between experiments.

[4] = test system: wild-type and variant SNAP-GIPR; experiment: Single-concentration GIP cAMP response by HTRF in INS-1 cells; details: Fig S3E, mean
Description: as §2

[5] = test system: wild-type and variant SNAP-GIPR; experiment: cADDis cAMP imaging in AD293 cells, ensemble, expression-matched and per decile; details: Fig S3F, cADDis, mean
Description: AD293 cells were reverse transfected with the GIPR variant or wild-type plasmids using Lipofectamine 2000 and cotransduced with the cADDis Green Up BacMam (10 μl per well, Montana Molecular, USA), in 96-well, poly-D-lysine–coated microplates. All variants were tested in parallel on each occasion to control for transfection efficiency differences between experiments. After 24 hours, cells were labeled using 500 nM SNAP-Surface Alexa Fluor 647 for 10 min at room temperature. Cells were washed three times and then imaged in KRBH buffer containing 6 mM glucose and 0.1% BSA. Imaging was performed at 37°C by wide-field microscopy using the same microscope as in the “Assessment of surface GIPR expression by SNAP-tag labeling in cell lines” section, with 9 FOVs for both cADDis and SNAP-Surface fluorescence acquired from each well using a 10X, 0.45 NA air objective. […] Flat-field correction was performed using BaSiC ([72]), drift correction was performed using SIFT, and a maximum intensity projection of the cADDis channel was used to segment individual cells. cAMP responses were determined by quantifying the cADDis fluorescence intensity for each cell at each time point. Nonviable cells or noncell objects were excluded according to criteria for allowable cell IBMX/FSK responses. […] The cADDis mask was then used to quantify the SNAP-Surface signal from each cell. Wild-type SNAP-Surface readings were split into deciles, and these deciles were subsequently used to categorize variant-transfected cells to match against the wild type. After trimming the top and bottom deciles, the mean was taken of each decile mean for surface expression level or cAMP response, which achieved matched expression levels by effectively applying an inverse weighting to counteract differences in cell number in each decile for different variants. Ensemble expression levels or cAMP responses were calculated without regard to deciles. Variant cADDis responses were also analyzed within their own surface expression deciles.

[6] = test system: wild-type and variant SNAP-GIPR; experiment: Constitutive and agonist-mediated internalization, reversible SNAP-tag labelling, AD293 cells; parameters: key to Internalisation, Vehicle / Internalisation, +GIP / Internalisation, GIP-only: % internalization: residual fluorescence after Mesna vs pre-Mesna; Surface expression: unit not given here; details: Mean
Description: (§3) Twenty-four hours before the experiment, AD293 or INS-1 cells were reverse transfected with GIPR variant or wild-type plasmids using Lipofectamine 2000 in 96-well, clear-bottom, black microplates precoated with poly-D-lysine. All variants were tested in parallel on each occasion to control for transfection efficiency differences between experiments. […] Media were then removed, cells washed with PBS and then placed in TNE buffer (pH 8.6) for imaging. […] After 10 min, the well was reimaged again to detect remaining fluorescence from internalized GIPR. Images were analyzed as in the “Assessment of surface GIPR expression by SNAP-tag labeling in cell lines” section, with the residual specific fluorescence after Mesna treatment expressed relative to the pre-Mesna value to establish percentage internalization.

[7] = test system: wild-type and variant SNAP-GIPR; experiment: Constitutive and agonist-mediated internalization, reversible SNAP-tag labelling, INS-1 cells; parameters: key to Internalisation, GIP-only / Internalisation, Vehicle / Internalisation, +GIP: % internalization: residual fluorescence after Mesna vs pre-Mesna; details: Mean
Description: as §3

B1: R131S (protein, UniProt P48546 22-466, looked up, variant R131S)
Gastric inhibitory …: RAETGSKGQTAGELYQRWERYRRECQETLAAAEPPSGLACNGSFDMYVCWDYAAPNATARASCPWYLPWHHHVAAGFVLRQCGSDGQWGLWRDHTQCENPEKNEAFLDQSLILERLQVMYTVGYSLSLATLLLALLILSLFRRLHCTRNYIHINLFTSFMLRAAAILSRDRLLPRPGPYLGDQALALWNQALAACRTAQIVTQYCVGANYTWLLVEGVYLHSLLVLVGGSEEGHFRYYLLLGWGAPALFVIPWVIVRYLYENTQCWERNEVKAIWWIIRTPILMTILINFLIFIRILGILLSKLRTRQMRCRDYRLRLARSTLTLVPLLGVHEVVFAPVTEEQARGALRFAKLGFEIFLSSFQGFLVSVLYCFINKEVQSEIRRGWHHCRLRRSLGEEQRQLPERAFRALPSGSGPGEVPTSRGLSSGTLPGPGNEASRELESYC
AD293 Surface ([1]; column repeated, paired with cAMP 100 nM): 1.362 | AD293 Surface ([1]; paired with cAMP 100 pM): 1.362 | Surface SNAP-GIPR expression ([1]; replicate 1): 0.7106 | Surface SNAP-GIPR expression ([1]; replicate 2): 2.058 | Surface SNAP-GIPR expression ([1]; replicate 3): 0.7777 | Surface SNAP-GIPR expression ([1]; replicate 4): 1.042 | Surface SNAP-GIPR expression ([1]; replicate 5): 1.12 | Surface SNAP-GIPR expression ([1]; replicate 6): 1.654 | Surface SNAP-GIPR expression ([1]; replicate 7): 1.227 | Surface SNAP-GIPR expression ([1]; replicate 8): 1.559 | Surface SNAP-GIPR expression ([1]; replicate 9): 1.551 | Surface SNAP-GIPR expression ([1]; replicate 10): 1.359 | Surface SNAP-GIPR expression ([1]; replicate 11): 1.194 | Surface SNAP-GIPR expression ([1]; replicate 12): 1.256 | Surface SNAP-GIPR expression ([1]; replicate 13): 1.318 | Surface SNAP-GIPR expression ([1]; replicate 14): 0.9106 | Surface SNAP-GIPR expression ([1]; replicate 15): 1.304 | Surface SNAP-GIPR expression ([1]; replicate 16): 1.372 | Surface SNAP-GIPR expression ([1]; replicate 17): 1.574 | Surface SNAP-GIPR expression ([1]; replicate 18): 1.448 | Surface SNAP-GIPR expression ([1]; replicate 19): 1.382 | Surface SNAP-GIPR expression ([1]; replicate 20): 1.357 | Surface SNAP-GIPR expression ([1]; replicate 21): 1.273 | Surface SNAP-GIPR expression ([1]; replicate 22): 1.627 | Surface SNAP-GIPR expression ([1]; replicate 23): 1.424 | Surface SNAP-GIPR expression ([1]; replicate 24): 1.463 | Surface SNAP-GIPR expression ([1]; replicate 25): 1.446 | Surface SNAP-GIPR expression ([1]; replicate 26): 1.405 | Surface SNAP-GIPR expression ([1]; replicate 27): 1.475 | Surface SNAP-GIPR expression ([1]; replicate 28): 1.453 | Surface SNAP-GIPR expression ([1]; replicate 29): 1.54 | Surface SNAP-GIPR expression ([1]; replicate 30): 1.363 | Surface SNAP-GIPR expression ([1]; replicate 31): 1.317 | Surface SNAP-GIPR expression ([1]; replicate 32): 1.55 | Surface SNAP-GIPR expression ([1]; replicate 33): 1.587 | Surface SNAP-GIPR expression ([1]; replicate 34): 1.477 | Surface SNAP-GIPR expression ([1]; replicate 35): 1.359 | Surface SNAP-GIPR expression ([1]; replicate 36): 1.207 | Surface SNAP-GIPR expression ([1]; replicate 37): 1.251 | Surface SNAP-GIPR expression ([1]; replicate 38): 1.505 | Surface SNAP-GIPR expression ([1]; replicate 39): 1.263 | Surface SNAP-GIPR expression ([1]; replicate 40): 1.363 | Surface SNAP-GIPR expression ([1]; replicate 41): 1.33 | Surface expression [2]: 1.447 | AD293 100 pM HTRF ([3]; AD293, 100 pM): 0.4337 | AD293 100 nM HTRF ([3]; AD293, 100 nM): 1.306 | INS-1 cAMP (100 nM) [4]: 1.548 | AD293 100 pM cADDis ([5]; AD293, 100 pM): 25.6916 | AD293 100 nM cADDis ([5]; AD293, 100 nM): 36.03 | +GIP internalisation (100 nM) ([6]; Fig 4E, GIP 100 nM): 0.7235 | GIP-specific internalisation (100 nM) ([6]; Fig 4E, GIP 100 nM): 0.2116 | Constitutive internalisation (100 nM) ([6]; Fig 4E): 0.5118 | Surface expression ([6]; Fig 4E): 1.308 | Internalisation, +GIP ([6]; Fig S4C, AD293): 55.4494 | Internalisation, GIP-only ([6]; Fig S4C, AD293): 16.1484 | Internalisation, Vehicle ([6]; Fig S4C, AD293): 39.3009 | +GIP internalisation (100 nM) ([7]; Fig 4G, GIP 100 nM): 0.7402 | GIP-specific internalisation (100 nM) ([7]; Fig 4G, GIP 100 nM): 0.1769 | Constitutive internalisation (100 nM) ([7]; Fig 4G): 0.5633 | Internalisation, +GIP ([7]; Fig S4C, INS-1): 45.9917 | Internalisation, GIP-only ([7]; Fig S4C, INS-1): 10.9733 | Internalisation, Vehicle ([7]; Fig S4C, INS-1): 35.0183
